# Experimental data reported in the supplement of paper PMC7877785.
# ± gives the uncertainty stated by the source.
# Assay: self-splicing fitness, log relative to wild type (ln ratio); higher = more splicing; Tetrahymena group I intron in knt gene, E. coli kanamycin selection, DiMSum; sequences stand for … in CUCUCU…GGAGGGAAAAGUUAUCAGGCAUGCACCUGGUAGCUAGUCUUUAAACCAAUAGAUUGCAUCGGUUUAAAAGGCAAGACCGUCAAAUUGCGGGAAAGGGGUCAACAGCCGUUCAGUACCAAGUCUCAGGGGAAACUUUGAGAUGGCCUUGCAAAGGGUAUGGUAAUAAGCUGACGGACAUGGUCCUAACCACGCAGCCAAGUCCUAAGUCAACAGAUCUUCUGUUGAUAUGGAUGCAGUUCACAGACUAAAUGUCGGUCGGGGAAGAUGUAUUCUUCUCAUAAGAUAUAGUCGGACCUCUCCUUAAUGGGAGCUAGCGGAUGAAGUGAUGCAACACUGGAGCCGCUGGGAACUAAUUUGUAUGCGAAAGUAUAUUGAUUAGUUUUGGAGUACUCGUGGUCG
# Method in brief: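 Pooled colonies went to amplicon sequencing on an Illumina HiSeq 2500 after six replicate transformations. The plates were LB agar with 100 μg/mL carbenicillin, 50 μM IPTG and 0.2% rhamnose, with or without 25 μg/mL kanamycin, incubated overnight at 37°C or 30°C. The E. coli BL21(DE3) library had all eight P1ex-region intron nucleotides randomised, the intron placed in the knt kanamycin-resistance gene on pET-22b(+). DiMSum fitness is the error-weighted combination of replicate fold changes, kanamycin against none, normalised to wild type.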
Sequence,self-splicing fitness (ln) (30 °C),self-splicing fitness (ln) (37 °C)
AAAAAGCAAUAUUACGAAAC,-3.11 ± 0.22,-2.36 ± 0.16
AAAAAGCAAUAUUACGAAUG,-1.48 ± 0.091,-0.947 ± 0.12
AAAAAGCAAUAUUACGACGA,0.0233 ± 0.084,-0.502 ± 0.1
AAAAAGCAAUAUUACGAGCG,-0.337 ± 0.12,-0.566 ± 0.11
AAAAAGCAAUAUUACGAUCC,-0.549 ± 0.12,0.153 ± 0.18
AAAAAGCAAUAUUACGAUCG,-0.0337 ± 0.054,0.0375 ± 0.068
AAAAAGCAAUAUUACGAUGA,-0.913 ± 0.064,-0.139 ± 0.084
AAAAAGCAAUAUUACGAUGU,-0.893 ± 0.064,-0.0506 ± 0.079
AAAAAGCAAUAUUACGAUUC,-0.58 ± 0.091,-0.42 ± 0.12
AAAAAGCAAUAUUACGCCCU,0.324 ± 0.1,0.202 ± 0.12
AAAAAGCAAUAUUACGCCUA,-0.792 ± 0.12,-0.855 ± 0.094
AAAAAGCAAUAUUACGCUCA,-0.278 ± 0.058,0.0203 ± 0.082
AAAAAGCAAUAUUACGGACC,-0.351 ± 0.092,-0.225 ± 0.11
AAAAAGCAAUAUUACGGGCU,-1.55 ± 0.074,-1.24 ± 0.099
AAAAAGCAAUAUUACGGUAA,-1.31 ± 0.12,-0.53 ± 0.11
AAAAAGCAAUAUUACGGUGG,-2.28 ± 0.1,-1.77 ± 0.13
AAAAAGCAAUAUUACGUACA,-0.777 ± 0.069,-0.613 ± 0.071
AAAAAGCAAUAUUACGUAUG,-2.02 ± 0.11,-1.63 ± 0.13
AAAAAGCAAUAUUACGUGCU,-1.68 ± 0.076,-0.538 ± 0.079
AAAAAGCAAUAUUACGUGUC,-3.44 ± 0.17,-1.79 ± 0.17
AAAAAGCAAUAUUACGUUGG,-3.28 ± 0.14,-1.15 ± 0.11
AAACAGCAAUAUUACGAAAC,-2.4 ± 0.24,-1.51 ± 0.23
AAACAGCAAUAUUACGAAUU,-2.36 ± 0.11,-1.2 ± 0.13
AAACAGCAAUAUUACGACUC,-0.613 ± 0.077,-0.502 ± 0.098
AAACAGCAAUAUUACGACUU,0.0535 ± 0.066,0.468 ± 0.086
AAACAGCAAUAUUACGAUAA,-1.6 ± 0.085,-0.365 ± 0.092

Sequence,self-splicing fitness (ln) (30 °C),self-splicing fitness (ln) (37 °C)
AAACAGCAAUAUUACGAUGC,-2.27 ± 0.058,-1.55 ± 0.074
AAACAGCAAUAUUACGAUUG,-3.35 ± 0.12,-1.76 ± 0.12
AAACAGCAAUAUUACGCACC,-0.45 ± 0.084,-0.254 ± 0.099
AAACAGCAAUAUUACGCACG,-1.45 ± 0.099,-0.888 ± 0.11
AAACAGCAAUAUUACGCCGA,-1.99 ± 0.087,-1.35 ± 0.09
AAACAGCAAUAUUACGCCGU,-2.54 ± 0.13,-1.96 ± 0.11
AAACAGCAAUAUUACGCUUA,-1.92 ± 0.087,-0.649 ± 0.094
AAACAGCAAUAUUACGCUUC,-3.6 ± 0.26,-2.35 ± 0.21
AAACAGCAAUAUUACGGCCU,-1.51 ± 0.064,-0.591 ± 0.071
AAACAGCAAUAUUACGGUCA,-0.86 ± 0.089,0.186 ± 0.097
AAACAGCAAUAUUACGGUUA,-0.306 ± 0.056,-0.167 ± 0.066
AAACAGCAAUAUUACGUGCG,-1.52 ± 0.053,-0.389 ± 0.065
AAACAGCAAUAUUACGUUCU,-0.831 ± 0.061,-0.0204 ± 0.077
AAAGAGCAAUAUUACGAAAC,-3.23 ± 0.44,-2.67 ± 0.48
AAAGAGCAAUAUUACGAACU,-1.41 ± 0.18,-1.14 ± 0.27
AAAGAGCAAUAUUACGACUU,-0.0829 ± 0.067,-0.0473 ± 0.079
AAAGAGCAAUAUUACGAGGU,-4.63 ± 0.26,-2.82 ± 0.19
AAAGAGCAAUAUUACGAUUA,-2.18 ± 0.22,-0.939 ± 0.17
AAAGAGCAAUAUUACGCCUC,-0.411 ± 0.27,–
AAAGAGCAAUAUUACGCUGU,-3.2 ± 0.15,-1.88 ± 0.16
AAAGAGCAAUAUUACGCUUU,-3.18 ± 0.23,-3.68 ± 0.36
AAAGAGCAAUAUUACGGACC,–,-1.61 ± 0.3
AAAGAGCAAUAUUACGGGCC,-2.09 ± 0.3,-1.86 ± 0.41
AAAGAGCAAUAUUACGGGGG,-2.5 ± 0.34,-2.31 ± 0.39
AAAGAGCAAUAUUACGGUCA,-1.91 ± 0.21,-1.3 ± 0.17
AAAGAGCAAUAUUACGGUCU,-2.5 ± 0.13,-1.76 ± 0.14

Sequence,self-splicing fitness (ln) (30 °C),self-splicing fitness (ln) (37 °C)
AAAGAGCAAUAUUACGUAGG,-3.36 ± 0.15,-2.76 ± 0.25
AAAGAGCAAUAUUACGUCAG,-4.01 ± 0.36,-2.29 ± 0.32
AAAGAGCAAUAUUACGUCUG,-3.55 ± 0.22,-2.36 ± 0.2
AAAGAGCAAUAUUACGUGAG,-2.95 ± 0.12,-1.02 ± 0.12
AAAGAGCAAUAUUACGUUAA,-3.16 ± 0.25,-2.28 ± 0.28
AAAGAGCAAUAUUACGUUGU,-3.11 ± 0.13,-2.51 ± 0.2
AAAUAGCAAUAUUACGACCG,-0.956 ± 0.15,-0.441 ± 0.19
AAAUAGCAAUAUUACGACGC,-0.825 ± 0.062,0.13 ± 0.085
AAAUAGCAAUAUUACGACGU,0.194 ± 0.083,-0.646 ± 0.074
AAAUAGCAAUAUUACGAGGA,-2.72 ± 0.19,-1.88 ± 0.18
AAAUAGCAAUAUUACGAGUA,-2.58 ± 0.19,-1.09 ± 0.12
AAAUAGCAAUAUUACGCAAG,-2.14 ± 0.094,-1.13 ± 0.11
AAAUAGCAAUAUUACGCAAU,-2.44 ± 0.13,-0.689 ± 0.12
AAAUAGCAAUAUUACGCAGA,-2.07 ± 0.26,–
AAAUAGCAAUAUUACGCGAA,-1.42 ± 0.14,-1.59 ± 0.16
AAAUAGCAAUAUUACGCGAC,-2.2 ± 0.17,-1.03 ± 0.2
AAAUAGCAAUAUUACGCGCA,-0.264 ± 0.092,-0.103 ± 0.11
AAAUAGCAAUAUUACGCGCG,-0.988 ± 0.1,-0.952 ± 0.11
AAAUAGCAAUAUUACGCGUA,-2.41 ± 0.21,-1.04 ± 0.13
AAAUAGCAAUAUUACGCUCA,-0.111 ± 0.13,0.39 ± 0.16
AAAUAGCAAUAUUACGUAGG,-2.59 ± 0.1,-1.96 ± 0.1
AAAUAGCAAUAUUACGUAUU,-2.56 ± 0.11,-0.844 ± 0.094
AAAUAGCAAUAUUACGUCCU,-0.0903 ± 0.081,0.319 ± 0.1
AAAUAGCAAUAUUACGUGGU,-3.87 ± 0.16,-2.84 ± 0.15
AAAUAGCAAUAUUACGUUAA,-2.87 ± 0.2,-2.1 ± 0.24
